# From US20250243261A1
# Key:
# [1] = target: SARS-CoV-2 Wuhan Spike on pseudotyped lentivirus (SARS-CoV-2 Wuhan-Hu-1) (UniProt P0DTC2); experiment: cell-based or functional assay
# [2] = target: HA H7 HK17, A/Hong Kong/125/2017(H7N9) (Influenza A virus); experiment: BLI, Fab
# [3] = target: HA H4 Hubei, A/swine/Hubei/06/2009(H4N1) (Influenza A virus); experiment: BLI, Fab
# LY-1404 WT IgG (antibody), sequence (VH): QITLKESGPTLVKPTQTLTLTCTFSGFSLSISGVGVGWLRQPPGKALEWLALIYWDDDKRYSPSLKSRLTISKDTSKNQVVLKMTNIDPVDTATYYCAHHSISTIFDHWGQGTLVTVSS
# LY-1404 WT IgG (antibody), sequence (VL): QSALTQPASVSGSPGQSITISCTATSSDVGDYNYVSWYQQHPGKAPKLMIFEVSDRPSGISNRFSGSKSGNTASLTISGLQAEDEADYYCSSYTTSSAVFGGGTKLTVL
Substance,Wuhan pseudotyped lentivirus IC50 [1],Kd [2],Kd [3]
LY-1404 WT IgG (antibody),3.1 µg/mL,–,–
MEDI8852 WT Fab,–,0.2 nM,0.56 nM
